Assay results: patent publication US20240115745A1 (3B PHARMACEUTICALS, published 2024)
*1 amine or outer side, *2 acyl side, *3 side chain or, on linkers, in order; H or OH if unused. Bridges are numbered along the chain shown (N, C = ends). Primed or numbered codes have the meaning given here. [ ]: non-standard residue; d: D form. The star is where a group is joined. mli = maleimide cyclization element: 3,4-maleimide inserted symmetrically, forming a vinyl thioether with each Cys sulfur; mli(Me)″ = N-methyl maleimide cyclization element, vinyl thioethers with both Cys, CN1C(=O)C([*:1])=C([*:2])C1=O; mli(DOTA-Eda) = 3,4-N-(DOTA-aminoethyl)-maleimide bridging two Cys S atoms as vinyl thioethers; Ttds = 1,13-diamino-4,7,10-trioxatridecan-succinamic acid, NCCCOCCOCCOCCCNC(=O)CCC(=O)*; mli(DOTA-Ttd) = 3,4-N-(DOTA-Ttd)-maleimide bridging two Cys S atoms as vinyl thioethers; mli(NODAGA-Ttd) = mli with NODAGA attached to the maleimide nitrogen via a Ttd linker; mli(N4Ac-Ttd) = mli with N4Ac attached to the maleimide nitrogen via a Ttd linker; mli(Me) = N-methyl maleimide cyclization element, CN1C(=O)C([*:1])=C([*:2])C1=O; N4Ac = 6-carboxy-1,4,8,11-tetraazaundecane, NCCNCC(CNCCN)C(=O)*; DOTA = O=C(O)CN1CCN(CC(=O)O)CCN(CC(=O)*)CCN(CC(=O)O)CC1; NODAGA = O=C(O)CN1CCN(CC(=O)O)CCN(C(CCC(=O)*)C(=O)O)CC1; O2Oc = 3,6-dioxaoctanoic acid; Nle = CCCC[C@H](N)C(=O)O; Hexanoyl = CCCCCC(=O)*

B1: compound Hex-[Cys(mli(Me))-Pro-Pro-Thr-Gln-Phe-Cys]-Asp-Lys(DOTA)-NH2 (2015) (peptide)
peptide: Hexanoyl-CPPTQFCDK(DOTA)-NH2
modifications: linker 1-7 via mli(Me)
SMILES: CCCCCC(=O)N[C@H]1CSC2=C(SC[C@@H](C(=O)N[C@@H](CC(=O)O)C(=O)N[C@@H](CCCCNC(=O)CN3CCN(CC(=O)O)CCN(CC(=O)O)CCN(CC(=O)O)CC3)C(N)=O)NC(=O)[C@H](Cc3ccccc3)NC(=O)[C@H](CCC(N)=O)NC(=O)[C@H]([C@@H](C)O)NC(=O)[C@@H]3CCCN3C(=O)[C@@H]3CCCN3C1=O)C(=O)N(C)C2=O
B2: compound DOTA-Ttds-Nle-[Cys(mli(Me))-Pro-Pro-Thr-Gln-Phe-Cys]-Asp-NH2 (2016) (peptide)
peptide: {DOTA-Ttds}-[Nle]CPPTQFCD-NH2
modifications: linker 2-8 via mli(Me)″
B3: compound Hex-[Cys(mli(DOTA-Ttd))-Pro-Pro-Thr-Gln-Phe-Cys]-Asp-NH2 (2017) (peptide)
peptide: Hexanoyl-CPPTQFCD-NH2
modifications: linker 1-7 via mli(DOTA-Ttd)
B4: compound Hex-[Cys(mli(DOTA-Eda))-Pro-Pro-Thr-Gln-Phe-Cys]-Asp-NH2 (2018) (peptide)
peptide: Hexanoyl-CPPTQFCD-NH2
modifications: linker 1-7 via mli(DOTA-Eda)
B5: compound Hex-[Cys(mli)-Pro-Pro-Thr-Gln-Phe-Cys]-Asp-Lys(NODAGA)-NH2 (2023) (peptide)
peptide: Hexanoyl-CPPTQFCDK(NODAGA)-NH2
modifications: linker 1-7 via mli
B6: compound Hex-[Cys(mli)-Pro-Pro-Thr-Gln-Phe-Cys]-Asp-Lys(N4Ac)-NH2 (2024) (peptide)
peptide: Hexanoyl-CPPTQFCDK(N4Ac)-NH2
modifications: linker 1-7 via mli
B7: compound Hex-[Cys(mli(NODAGA-Ttd))-Pro-Pro-Thr-Gln-Phe-Cys]-Asp-NH2 (2025) (peptide)
peptide: Hexanoyl-CPPTQFCD-NH2
modifications: linker 1-7 via mli(NODAGA-Ttd)
B8: compound Hex-[Cys(mli(N4Ac-Ttd))-Pro-Pro-Thr-Gln-Phe-Cys]-Asp-NH2 (2026) (peptide)
peptide: Hexanoyl-CPPTQFCD-NH2
modifications: linker 1-7 via mli(N4Ac-Ttd)
B9: compound DOTA-O2Oc-Nle-[Cys-Pro-Pro-Thr-Glu-Phe-Cys]-Asp-His-Phe-Arg-Asp-NH2 (1005) (peptide)
peptide: {DOTA-O2Oc}-[Nle]CPPTEFCDHFRD-NH2
modifications: disulfide 2-8
notes: By the running order it belongs to 1005
B10: compound DOTA-Ttds-Nle-[Cys-Pro-Pro-Thr-Glu-Phe-Cys]-Asp-His-Phe-Arg-Asp-NH2 (1006) (peptide)
peptide: {DOTA-Ttds}-[Nle]CPPTEFCDHFRD-NH2
modifications: disulfide 2-8
notes: By the running order it belongs to 1006
B11: compound DOTA-Ttds-Nle-[Cys-Pro-Pro-Thr-Gln-Phe-Cys]-Asp-NH2 (1008) (peptide)
peptide: {DOTA-Ttds}-[Nle]CPPTQFCD-NH2
modifications: disulfide 2-8

Each binder was assayed against Recombinant human FAP (R&D systems, #3715-SE) (human, UniProt Q12884 26-760) (assay: cell-based or functional assay).
B1 was tested, and the “pIC50 Category (Activity), FRET-based FAP protease activity assay” value (from here on “pIC50 Category (Activity)”) was over 7 pIC50.
For B2, the “pIC50 Category (Activity)” value was over 7 pIC50.
With B3 the “pIC50 Category (Activity)” value was over 7 pIC50.
In the case of B4, the “pIC50 Category (Activity)” value is reported as over 7 pIC50.
B5 was tested, and the “pIC50 Category (Activity)” value was over 7 pIC50.
With B6 the “pIC50 Category (Activity)” value was over 7 pIC50.
For B7, the “pIC50 Category (Activity)” value was over 7 pIC50.
In the case of B8, the “pIC50 Category (Activity)” value is reported as over 7 pIC50.
In the case of B9, the “pIC50 Category (Activity)” value is reported as over 7 pIC50.
In the case of B10, the “pIC50 Category (Activity)” value is reported as over 7 pIC50.
In the case of B11, the “pIC50 Category (Activity)” value is reported as over 7 pIC50.

Each binder was assayed against T1, fibroblast activation protein (FAP) on FAP-expressing human WI-38 fibroblasts (human, UniProt Q12884 1-760) (assay: competitive FACS on WI-38 cells vs 3 nM Cy5-labeled probe; A = pIC50 >7.0).
T1 construct: Endogenous FAP on WI-38 cells (ECACC) in the FACS assay; also called human FAP
Method: FAP-expressing human WI-38 fibroblasts (ECACC) were cultured in EMEM including 15% fetal bovine serum, 2 mM L-Glutamine and 1% Non-essential amino acids. Cells were detached with Accutase (Biolegend, #BLD-423201) and washed in FACS buffer (PBS including 1% FBS). Cells were diluted in FACS buffer to a final concentration of 100.000 cells per ml and 200 μl of the cell suspension are transferred to a u-shaped non-binding 96-well plate (Greiner). […] Cell were washed twice with FACS buffer and resuspended in 200 μl FACS buffer. Cells were analyzed in an Attune NxT flow cytometer. Median fluorescence intensities (Cy5 channel) was calculated by Attune NxT software and plotted against peptide concentrations. Four parameter logistic (4PL) curve fitting and pIC50 calculations were performed using ActivityBase software.
In the case of B1, the “pIC50 Category (FACS)” value is reported as over 7 pIC50.
In the case of B2, the “pIC50 Category (FACS)” value is reported as over 7 pIC50.
With B3 the “pIC50 Category (FACS)” value was over 7 pIC50.
For B4, the “pIC50 Category (FACS)” value was over 7 pIC50.
B5 was tested, and the “pIC50 Category (FACS)” value was over 7 pIC50.
In the case of B6, the “pIC50 Category (FACS)” value is reported as over 7 pIC50.
With B7 the “pIC50 Category (FACS)” value was over 7 pIC50.
With B8 the “pIC50 Category (FACS)” value was over 7 pIC50.
With B9 the “pIC50 Category (FACS)” value was over 7 pIC50.
B10 was tested, and the “pIC50 Category (FACS)” value was over 7 pIC50.
B11 was tested, and the “pIC50 Category (FACS)” value was over 7 pIC50.
